Biological target: the molecule itself
Assay: SEC

Protein | stoichiometry N | binding result
RdgC protein (Escherichia coli), wild type (natural protein) not shown | 2 | 
RdgC R118C (natural protein) not shown |  | binds
RdgC Δfinger (P76G, Δ77–115, L116T) (natural protein) not shown |  | binds
RdgC Δfinger R118C (natural protein) not shown |  | binds

— article PMC2965237 (Nucleic Acids Research, 2010)
